Measured values: patent US20260248939A1 (SYNAFFIX B V, published 2026)

T1: Human PTK7 (CCK4 protein, ECD, His Tag, Sino Biological) (human, UniProt Q13308 31-704)
T1 construct: extracellular domain; Bought protein; also called hPTK7; HPTK7; not shown: His tag
T1 sequence (looked up): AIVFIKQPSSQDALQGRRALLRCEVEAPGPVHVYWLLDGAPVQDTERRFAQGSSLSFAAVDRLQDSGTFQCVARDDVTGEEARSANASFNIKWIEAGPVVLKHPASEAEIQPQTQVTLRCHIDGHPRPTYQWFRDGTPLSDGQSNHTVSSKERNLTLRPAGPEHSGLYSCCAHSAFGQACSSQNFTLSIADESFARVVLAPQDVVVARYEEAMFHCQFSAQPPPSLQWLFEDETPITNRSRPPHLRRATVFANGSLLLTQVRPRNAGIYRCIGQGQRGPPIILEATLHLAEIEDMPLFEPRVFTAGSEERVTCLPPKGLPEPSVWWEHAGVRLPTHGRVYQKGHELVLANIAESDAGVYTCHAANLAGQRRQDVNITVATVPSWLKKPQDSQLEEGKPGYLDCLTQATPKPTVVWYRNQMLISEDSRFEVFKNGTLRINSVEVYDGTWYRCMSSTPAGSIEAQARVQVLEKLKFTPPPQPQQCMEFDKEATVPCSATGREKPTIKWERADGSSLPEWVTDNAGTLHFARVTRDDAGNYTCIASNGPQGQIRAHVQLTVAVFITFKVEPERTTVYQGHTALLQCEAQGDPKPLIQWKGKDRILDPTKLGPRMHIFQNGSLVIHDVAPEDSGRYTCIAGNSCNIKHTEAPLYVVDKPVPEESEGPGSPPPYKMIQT

T2: cynomolgus PTK7 (CCK4 protein, ECD, His Tag, Sino Biological) (cynomolgus, UniProt A0A2K5VNI5 39-712)
T2 construct: extracellular domain; Bought protein; also called cPTK7; cyno PTK7; not shown: His tag
T2 sequence: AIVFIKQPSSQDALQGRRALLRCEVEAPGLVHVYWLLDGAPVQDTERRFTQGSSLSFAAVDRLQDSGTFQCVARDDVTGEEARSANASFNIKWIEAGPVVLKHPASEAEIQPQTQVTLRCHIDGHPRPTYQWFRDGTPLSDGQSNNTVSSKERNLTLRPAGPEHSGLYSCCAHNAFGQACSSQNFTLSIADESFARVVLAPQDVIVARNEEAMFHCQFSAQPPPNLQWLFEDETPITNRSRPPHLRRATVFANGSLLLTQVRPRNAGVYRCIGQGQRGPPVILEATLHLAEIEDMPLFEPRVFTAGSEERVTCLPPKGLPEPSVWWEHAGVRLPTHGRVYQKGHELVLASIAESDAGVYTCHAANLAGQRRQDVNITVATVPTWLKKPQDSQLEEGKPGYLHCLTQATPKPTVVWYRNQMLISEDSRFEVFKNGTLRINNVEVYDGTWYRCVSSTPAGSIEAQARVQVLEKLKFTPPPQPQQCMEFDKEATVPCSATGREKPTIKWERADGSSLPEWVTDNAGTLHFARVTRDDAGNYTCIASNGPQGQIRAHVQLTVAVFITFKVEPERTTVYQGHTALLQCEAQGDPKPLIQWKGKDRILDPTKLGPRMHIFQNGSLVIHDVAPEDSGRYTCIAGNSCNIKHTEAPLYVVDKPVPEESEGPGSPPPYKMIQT

B1: B12-3 (antibody, human IgG1, kappa, V domains shown)
VH: QVQLVQSGAEVKKPGASVKVSCQASGYRFSNFVIHWVRQAPGQRFEWMGWINPYNGNKEFSAKFQDRVTFTADTSANTAYMELRSLRSADTAVYYCARVGPYSWDDSPQDNYYMDVWGKGTTVIVSS
VL: EIVLTQSPGTLSLSPGERATFSCRSSHSIRSRRVAWYQHKPGQAPRLVIHGVSNRASGISDRFSGSGSGTDFTLTITRVEPEDFALYYCQVYGASSYTFGQGTKLERKR
notes: also called B12 (VI) conjugated with linker-drug 3; isotype control ADC
B2: 4D5-3 (antibody, human IgG1, kappa, V domains shown)
VH: QVQLVESGGGVVQPGRSLRLSCAASGFTFSSYAFHWVRQAPGKGLEWVAVISYDGSIKYYADSVKGRFTISRDNSKNTLYLQMNSLRAEDTAVYYCARTYYFDYWGQGTLVTVSS
VL: EIVLTQSPDFQSVTPKEKVTITCRASQSIGSSLHWYQQKPDQSPKLLIKYASQSFSGVPSRFSGSGSGTDFTLTINSLEAEDAAAYYCHQSSSLPITFGQGTRLEIKR
modifications: heavy-chain N-glycan trimmed to core GlcNAc, extended with 6-N3-GalNAc and clicked to BCN-HS-PEG2-HS-(va-PAB-Ex)2 (linker-drug 3, exatecan); average DAR 3.91
B3: 12C6a-3 (antibody, human IgG1, kappa, V domains shown)
VH: VQLVQSGGGLVHPGGSLRLSCAGSGFTFSTYLMYWVRQAPGKTLEWVSAIGSGGDTYYADSVKGRFTISRDNAKNSLYLQMNSLRAEDMAVYYCARGLGYWGQGTLVTVSS
VL: DIQMTQSPSSLSASVGDRVTITCRASQGISSWLAWYQQKPEKAPKSLIYAASSLQSGVPSRFSGSGSGTDFTLTISSLQPEDFATYYCQQYNSYPYTFGQGTKLEIKR
modifications: heavy-chain N-glycan trimmed to core GlcNAc, extended with 6-N3-GalNAc and clicked to BCN-HS-PEG2-HS-(va-PAB-Ex)2 (linker-drug 3, exatecan); average DAR 3.90
notes: Antibody-drug conjugate of IgG 12C6a (V)

Legend:
[1] = target: T1, Human PTK7 (CCK4 protein, ECD, His Tag, …); experiment: ELISA: His-tagged hPTK7 on nickel plate, ADC at 8 µg/mL (Example 25), goat anti-human IgG-HRP, TMB, absorbance at 652 nm, background-corrected
[2] = target: T3, Rat PTK7 (His Tag, Acro Biosystems) (rat, UniProt A0A8I6ALM9 40-713); experiment: ELISA: His-tagged PTK7 on nickel plate, ADC at 8 µg/mL (Example 25), goat anti-human IgG-HRP, TMB, absorbance at 652 nm, background-corrected
T3 construct: Bought protein; also called rPTK7; not shown: His tag

[3] = target: T1, Human PTK7 (CCK4 protein, ECD, His Tag, …); experiment: as above
Method: (§1) Nickel NTA plates (Pierce™ Nickel coated plated, ThermoScientific™) were washed three times prior to use. Human PTK7 (CCK4 protein, ECD, His Tag, Sino Biological), cynomolgus PTK7 (CCK4 protein, ECD, His Tag, Sino Biological) and Rat PTK7 (His Tag, Acro Biosystems) were dissolved at a concentration of 0.05 μg/mL in 0.1% BSA in PBS (PBA). 100 μL was added to each well and incubated while shaking for 1 hour at room temperature. After removal, the plate was washed 3× with 0.05% Tween-20 in PBS (washing buffer). ADCs were diluted in 0.1% PBA to a final concentration of 8 μg/mL and 100 μL was added to each well (in triplo). ADCs were incubated for 1 h at room temperature. Prior to the addition of 100 μL 1:1000 dilution of secondary antibody (Goat anti-human IgG, HRP conjugate, Invitrogen) the plate was washed 3× with washing buffer. The plate was incubated again for 1 h at room temperature and subsequently washed 3× with washing buffer and 3× with PBS. Finally, 100 μL TMB ELISA substrate (1 Step™ Turbo TMB ELISA substrate, ThermoScientific™) was added and incubated for 1 minute.

[4] = target: T2, cynomolgus PTK7 (CCK4 protein, ECD, His …); experiment: as above
Method: as §1

Binder | binding result [1] | binding result [2] | binding result [3] | binding result [4]
B1 | no binding (tested: 8 µg/mL) |  |  | 
B2 |  | no binding (tested: 8 µg/mL) | binds | 
B3 |  | no binding (tested: 8 µg/mL) | no binding (tested: 8 µg/mL) | no binding (tested: 8 µg/mL)
